Measured values reported in patent US20230331868A1 (Seagen, published 2023).

Key:
[1] = biological target: T1, bovine submaxillary mucin (bovine); assay: ELISA on BSM-coated wells; antibody from one liter production
T1 construct: Natural mucin preparation; also called BSM
Procedure: (§1) For BSM ELISA analysis, antibodies were screened over a concentration range of 0 to 100 nM on bovine submaxillary mucin (BSM) coated wells. A subset of wells were treated with mild periodate solution before antibody binding to remove the side chain on terminal sialic acid residues (destroying the STn antigen). Optical densities of periodate and non-periodate-treated wells were determined and log transformed then fit to a nonlinear regression model to obtain a dose response curve. Optical density values obtained from periodate-treated wells were subtracted from non-periodate treated wells to obtain a periodate-sensitive STn binding curve and corresponding EC₅₀ values.
Based on the results of characterization experiments, two antibodies from each clone group were selected for one liter expression and resulting antibodies were tested again according to the same procedures (see results presented in the following Table).

[2] = biological target: T1, bovine submaxillary mucin; assay: ELISA on BSM-coated wells; periodate-sensitive signal
Procedure: as §1

B1: Humanized 3F1 VL1,VH1 (antibody, V domains shown)
VH: QVQLVQSGAEVKKPGASVKVSCKASGYTFTDHAIHWVRQAPGQGLEWMGYISPGNGDIKYNEKFKDRVTMTADKSSSTAYMQLRSLRSDDTAVYFCKRSLLALDYWGQGTLVTVSS
VL: DIQMTQSPSSLSASVGDRVTITCKASQDVGTNIAWYQQKPGKAPKVLIYSASTRHTGVPSRFSGSGSGTDFTLTISSLQPEDFATYFCQQYSSFPLTFGQGTKVEIK
notes: also called Hu3F1,L1H1; Hu3F1 L1H1
EC50 [1]: 0.86 nM | EC50 [2]: 1.8 nM

B2: Humanized 2G12-2B2 VL2,VH2 (antibody, V domains shown)
VH: QVQLVQSGAEVKKPGASVKISCKASGYTFTDHAIHWVRQAPGQGLEWIGYFSPGNDDIKYNEKFRGRVTLTADKSSSTAYMELRSLRSDDTAVYFCKRSLSTPYWGQGTLVTVSS
VL: DIVMTQSPDSLAVSLGERVTMSCKSSQSLLNRGNHKNYLTWYQQKPGQPPKLLIYWASTRESGVPDRFSGSGSGTDFTLTISSLQAEDVAVYYCQNDYTYPYTFGQGTKVEIK
notes: also called Hu2G12-2B2,L2H2; Hu2G12-2B2 L2H2
EC50 [1]: 1.82 nM | EC50 [2]: 2.9 nM
